Data on ten molecules can be found in patent publication CN116262788A (TAIZE HUIKANG BIOMEDICAL CO LTD; BEIJING MIANYI FANGZHOU …, dated 2023).

Assay [1] addresses T1, 人CD27 (稳定表达人CD27的细胞系 HEK::CD27 细胞) (human, UniProt P26842 20-260).
T1 construct: whole, on cells; also called hCD27; 表达hCD27的细胞
T1 sequence (looked up): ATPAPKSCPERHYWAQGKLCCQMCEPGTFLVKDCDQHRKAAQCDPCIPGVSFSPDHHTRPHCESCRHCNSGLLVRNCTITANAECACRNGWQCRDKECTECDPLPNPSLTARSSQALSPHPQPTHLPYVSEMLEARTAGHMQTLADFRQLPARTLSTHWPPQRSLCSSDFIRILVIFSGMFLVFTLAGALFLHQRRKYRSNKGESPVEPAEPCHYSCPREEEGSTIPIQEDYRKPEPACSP
Briefly: flow cytometry on HEK::CD27 cells, 10 ng and 100 ng antibody.

Assay [2] addresses T2, 人CD27蛋白 (Cat: 10039-H03H, Sino Biological Inc.) (human, UniProt P26842 21-192).
T2 construct: Bought protein coated on the SPR chip
T2 sequence (looked up): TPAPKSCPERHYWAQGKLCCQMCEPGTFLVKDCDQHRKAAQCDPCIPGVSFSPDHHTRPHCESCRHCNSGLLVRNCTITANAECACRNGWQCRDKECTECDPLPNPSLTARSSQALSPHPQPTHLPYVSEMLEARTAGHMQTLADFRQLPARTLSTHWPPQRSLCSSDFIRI
Briefly: SPR (Reichert4), human CD27 protein on chip, antibody as analyte, curve 1.25e-8.

Assay [3] addresses T2, 人CD27蛋白 (Cat: 10039-H03H, Sino …). In words: SPR (Reichert4), human CD27 protein on chip, antibody as analyte, curve 2.50e-8.
Assay [4] shares this target. In words: SPR (Reichert4), human CD27 protein on chip, antibody as analyte, curve 5.00e-8.
For assay [5] the target is unchanged. In words: SPR (Reichert4), human CD27 protein on chip, antibody as analyte, curve 6.25e-9.
For assay [6], the target named is 人CD27 (稳定表达人CD27的细胞系 HEK::CD27 细胞) (human) (UniProt P26842). Briefly: flow cytometry on cells expressing human CD27.
For assay [7], the target named is T2, 人CD27蛋白 (Cat: 10039-H03H, Sino …). Briefly: SPR (Reichert4), human CD27 protein on chip, antibody as analyte, curve printed 625e-9.

B1: Hu6D8-5 (antibody, human IgG4, V domains shown)
VH: EVQLVQSGAEVKKPGASVKVSCKASGYTFTNYGMNWVRQAPGQGLKWMGWINTNTGEPTYADDFKGRVTMTLDTSISTAYMELSRLRSDDTAVYYCAREGDGFDSWGQGTTVTVSS
VL: QIVLTQSPDFQSVTPKEKVTITCSATSSVNYMHWYQQKPDQSPKRWIYDTSRLASGVPSRFSGSGSGTDYTLTINSLEAEDAATYYCQQWNTNPWTFGGGTKVEIK
As for B1, the binding result in assay [1] is recorded as “binds”.

B2: Hu6D8-3 (antibody, human IgG4, V domains shown)
VH: EVQLVQSGAEVKKPGASVKVSCKASGYTFTNYGMNWVRQAPGQGLKWMGWINTNTGEPTYADDFKGRVTMTLDTSISTAYMELSRLRSDDTAVYYCAREGDGFDSWGQGTTVTVSS
VL: QIVLTQSPDFQSVTPKEKVTITCSATSSVNYMHWYQQKPDQSPKRLIYDTSRLASGVPSRFSGSGSGTDYTLTINSLEAEDAATYYCQQWNTNPWTFGGGTKVEIK
In the case of B2, in assay [1], the binding result is “binds”.

B3: Hu6D8-1 (antibody, human IgG4, V domains shown)
VH: EVQLVQSGAEVKKPGASVKVSCKASGYTFTNYGMNWVRQAPGQGLKWMGWINTNTGEPTYADDFKGRVTMTLDTSISTAYMELSRLRSDDTAVYYCAREGDGFDSWGQGTTVTVSS
VL: EIVLTQSPDFQSVTPKEKVTITCSATSSVNYMHWYQQKPDQSPKRLIYDTSRLASGVPSRFSGSGSGTDYTLTINSLEAEDAATYYCQQWNTNPWTFGGGTKVEIK
Turning to B3, the binding result in assay [1] is given as “binds”.

B4: Hu6D8-2 (antibody, human IgG4, V domains shown)
VH: EVQLVQSGAEVKKPGASVKVSCKASGYTFTNYGMNWVRQAPGQGLKWMGWINTNTGEPTYADDFKGRVTMTLDTSISTAYMELSRLRSDDTAVYYCAREGDGFDSWGQGTTVTVSS
VL: EIVLTQSPDFQSVTPKEKVTITCSATSSVNYMHWYQQKPDQSPKRWIYDTSRLASGVPSRFSGSGSGTDYTLTINSLEAEDAATYYCQQWNTNPWTFGGGTKVEIK
Turning to B4, the binding result in assay [1] was “binds”.

B5: Hu6D8-4 (antibody, human IgG4, V domains shown)
VH: EVQLVQSGAEVKKPGASVKVSCKASGYTFTNYGMNWVRQAPGQGLKWMGWINTNTGEPTYADDFKGRVTMTLDTSISTAYMELSRLRSDDTAVYYCAREGDGFDSWGQGTTVTVSS
VL: QFVLTQSPDFQSVTPKEKVTITCSATSSVNYMHWYQQKPDQSPKRLIYDTSRLASGVPSRFSGSGSGTDYTLTINSLEAEDAATYYCQQWNTNPWTFGGGTKVEIK
With B5, the binding result in assay [1] was “binds”.

B6: Hu6D8-12 (antibody, human IgG4, V domains shown)
VH: EVQLVQSGAEVKKPGASVKVSCKASGYTFTNYGMNWVRQAPGQGLKWMGWINTNTGEPTYADDFKGRFTFTLDTSISTAYMELSRLRSDDTAVYYCAREGDGFDSWGQGTTVTVSS
VL: QFVLTQSPDFQSVTPKEKVTITCSATSSVNYMHWYQQKPDQSPKRWIYDTSRLASGVPSRFSGSGSGTDYTLTINSLEAEDAATYYCQQWNTNPWTFGGGTKVEIK
On to B6, for which the binding result in assay [1] was “binds”.

B7: Hu6D8-6 (antibody, human IgG4, V domains shown)
VH: EVQLVQSGAEVKKPGASVKVSCKASGYTFTNYGMNWVRQAPGQGLKWMGWINTNTGEPTYADDFKGRVTMTLDTSISTAYMELSRLRSDDTAVYYCAREGDGFDSWGQGTTVTVSS
VL: QFVLTQSPDFQSVTPKEKVTITCSATSSVNYMHWYQQKPDQSPKRWIYDTSRLASGVPSRFSGSGSGTDYTLTINSLEAEDAATYYCQQWNTNPWTFGGGTKVEIK
Take B7: the binding result in assay [1] was “binds”.

B8: Varlilumab (antibody, V domains shown)
VH: QVQLVESGGGVVQPGRSLRLSCAASGFTFSSYDMHWVRQAPGKGLEWVAVIWYDGSNKYYADSVKGRFTISRDNSKNTLYLQMNSLRAEDTAVYYCARGSGNWGFFDYWGQGTLVTVSS
VL: DIQMTQSPSSLSASVGDRVTITCRASQGISRWLAWYQQKPEKAPKSLIYAASSLQSGVPSRFSGSGSGTDFTLTISSLQPEDFATYYCQQYNTYPRTFGQGTKVEIKR
Consider B8, for which the equilibrium dissociation constant (Kd) in assay [2], in assay [3], in assay [4] and in assay [5] was 1.85 pM each time. Moreover, the koff in assay [2], in assay [3], in assay [4] and in assay [5] was 2.14e-07 s⁻¹ in each case. The association rate constant (kon) in assay [2], in assay [3], in assay [4] and in assay [5] was 116000 M⁻¹ s⁻¹ in each case.

B9: 鼠抗人CD27单克隆抗体6D8 (antibody, V domains shown)
VH: QIQLVQSGPELKKPGETVKISCKASGYTFTNYGMNWVKQAPGKGLKWMGWINTNTGEPTYADDFKGRFAFSLETSATTAYLQINNLKNEDTATYFCAREGDGFDSWGQGTTLTVSS
VL: QFVLTQSPAIMSASPGEKVTMTCSATSSVNYMHWYQQKSGTSPKRWIYDTSRLASGVPARFSGSGSGTSYSLTISSMEAEDAATYYCQQWNTNPWTFGGGTKLEIK
notes: it is not clear whether they are whole chains or variable regions only; also called 6D8抗体
For B9, the 结合率 in assay [6] is more than 85%. Further, the equilibrium dissociation constant (Kd) in assay [2], in assay [3], in assay [4] and in assay [7] was 514 pM in each case. For the same molecule, the koff in assay [2], in assay [3], in assay [4] and in assay [7] was 9.69e-05 s⁻¹ throughout. Further, the kon in assay [2], in assay [3], in assay [4] and in assay [7] was 188000 M⁻¹ s⁻¹ in each case.

B10: 6D8-G98A (人鼠嵌合抗体) (antibody, V domains shown)
VH: QIQLVQSGPELKKPGETVKISCKASGYTFTNYGMNWVKQAPGKGLKWMGWINTNTGEPTYADDFKGRFAFSLETSATTAYLQINNLKNEDTATYFCAREGDAFDSWGQGTTLTVSS
VL: QFVLTQSPAIMSASPGEKVTMTCSATSSVNYMHWYQQKSGTSPKRWIYDTSRLASGVPARFSGSGSGTSYSLTISSMEAEDAATYYCQQWNTNPWTFGGGTKLEIK
In the case of B10, in assay [1], the binding result was “binds”.
